Measured values: publication PMC3577912, “A Novel Role for Arabidopsis CBL1 in Affecting Plant Responses to Glucose and Gibberellin during Germination and Seedling Development” (PLoS ONE, 2013)

Biological target: T1, His-AKINβ1 fusion protein (Arabidopsis thaliana, UniProt Q84VQ1 1-283)
T1 construct: AKINβ1, β regulatory subunit of SnRK1, Arabidopsis thaliana, AT5G21170; also called pET-AKINβ1; His-tagged AKINβ1
T1 sequence (looked up): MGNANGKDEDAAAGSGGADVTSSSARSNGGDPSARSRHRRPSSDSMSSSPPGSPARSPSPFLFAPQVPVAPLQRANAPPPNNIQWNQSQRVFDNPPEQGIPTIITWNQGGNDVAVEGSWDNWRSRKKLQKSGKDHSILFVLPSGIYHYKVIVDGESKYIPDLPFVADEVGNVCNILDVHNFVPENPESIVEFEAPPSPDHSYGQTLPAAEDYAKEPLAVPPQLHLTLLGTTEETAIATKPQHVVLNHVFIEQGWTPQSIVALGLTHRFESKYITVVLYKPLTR
Assay: pull-down; about 5 µg GST-CBL1 immobilised on Glutathione-Sepharose 4B beads, incubated with His-AKINβ1 overnight at 4°C, washed five times with ice-cold PBS, Western blot with anti-His antibody
Conditions: both partners purified

binding result: binds
B1: GST-CBL1 fusion protein (natural protein)
chain: not shown
notes: Calcineurin B-like protein 1 (CBL1), Arabidopsis thaliana, AT4G17615; also called pGEX-CBL1; glutathione S-transferase (GST)-CBL1; source: E. coli BL21 (DE3), purified (Glutathione Sepharose)
